Source: patent US20140206628A1

What was measured:
Settings in all cases: remark: other sources report otherwise
[1] = target: A/Solomon Islands/3/06 (H1N1)
A/AA/Marton/43 (H1N1) = target: A/AA/Marton/43 (H1N1)
A/USSR/90/77 (H1N1) = target: A/USSR/90/77 (H1N1)
A/Beijing/262/95 (H1N1) = target: A/Beijing/262/95 (H1N1)

B1: HB80.3 ([change], [change], [change], [change], Delta54-95) (designed binder)
chain: MASTRGSGRPWGFSENLAFELALSFTNKDTPDRWAKVAQYVSGRTPEEVKKHYE
- Kd [1]: 100 nM
- Kd (A/AA/Marton/43 (H1N1)): 10 nM
- Kd (A/USSR/90/77 (H1N1)): 10 nM
- Kd (A/Beijing/262/95 (H1N1)): 10 nM
